Measurements: paper PMC7060279

Columns and labels:
[1] = target: integrin αvβ3 protein (UniProt P06756)
[2] = target: integrin αvβ3 protein (UniProt P06756); assay: SPR; Biacore T-200; TLR2, TLR4 and integrin αvβ3 immobilised on a CM5 chip by amine coupling; CCN1 as analyte at 25 µl per min, 25 °C, phosphate buffer with 350 mM NaCl, 0.5 mM CaCl2, 0.5 mM MgCl2, 10 µg per ml BSA; global fit to 1:1 Langmuir model, KD = kd/ka

integrin αvβ3 protein, sequence (P06756 31-1048, chain 1 of 2): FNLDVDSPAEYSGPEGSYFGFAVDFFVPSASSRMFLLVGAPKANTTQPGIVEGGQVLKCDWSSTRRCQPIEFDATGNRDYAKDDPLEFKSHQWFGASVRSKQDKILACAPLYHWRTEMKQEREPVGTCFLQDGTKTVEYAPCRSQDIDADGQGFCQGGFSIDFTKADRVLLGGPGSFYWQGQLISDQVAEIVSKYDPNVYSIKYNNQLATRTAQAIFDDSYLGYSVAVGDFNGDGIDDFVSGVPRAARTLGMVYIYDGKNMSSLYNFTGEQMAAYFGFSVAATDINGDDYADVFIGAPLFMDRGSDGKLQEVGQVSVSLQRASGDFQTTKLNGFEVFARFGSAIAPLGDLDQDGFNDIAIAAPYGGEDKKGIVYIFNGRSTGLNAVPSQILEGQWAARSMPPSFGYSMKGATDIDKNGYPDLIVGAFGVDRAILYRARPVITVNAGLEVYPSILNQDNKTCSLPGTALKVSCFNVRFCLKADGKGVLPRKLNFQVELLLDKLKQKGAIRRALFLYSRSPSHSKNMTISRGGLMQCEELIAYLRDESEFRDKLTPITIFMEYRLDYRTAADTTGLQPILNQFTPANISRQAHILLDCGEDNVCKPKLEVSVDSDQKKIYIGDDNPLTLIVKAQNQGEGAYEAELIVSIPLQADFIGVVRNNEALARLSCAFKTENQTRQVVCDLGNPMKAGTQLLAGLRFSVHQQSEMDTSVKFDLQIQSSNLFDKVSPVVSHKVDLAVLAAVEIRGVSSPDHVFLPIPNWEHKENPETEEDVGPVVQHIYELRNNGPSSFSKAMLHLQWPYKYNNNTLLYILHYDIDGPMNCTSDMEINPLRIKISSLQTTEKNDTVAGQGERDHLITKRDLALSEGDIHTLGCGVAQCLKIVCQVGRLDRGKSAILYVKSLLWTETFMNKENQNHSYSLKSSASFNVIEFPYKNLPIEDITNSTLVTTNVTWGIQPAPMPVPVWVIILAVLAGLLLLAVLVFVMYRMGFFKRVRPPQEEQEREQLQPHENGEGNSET
integrin αvβ3 protein, sequence (P05106 27-718, chain 2 of 2, further chain): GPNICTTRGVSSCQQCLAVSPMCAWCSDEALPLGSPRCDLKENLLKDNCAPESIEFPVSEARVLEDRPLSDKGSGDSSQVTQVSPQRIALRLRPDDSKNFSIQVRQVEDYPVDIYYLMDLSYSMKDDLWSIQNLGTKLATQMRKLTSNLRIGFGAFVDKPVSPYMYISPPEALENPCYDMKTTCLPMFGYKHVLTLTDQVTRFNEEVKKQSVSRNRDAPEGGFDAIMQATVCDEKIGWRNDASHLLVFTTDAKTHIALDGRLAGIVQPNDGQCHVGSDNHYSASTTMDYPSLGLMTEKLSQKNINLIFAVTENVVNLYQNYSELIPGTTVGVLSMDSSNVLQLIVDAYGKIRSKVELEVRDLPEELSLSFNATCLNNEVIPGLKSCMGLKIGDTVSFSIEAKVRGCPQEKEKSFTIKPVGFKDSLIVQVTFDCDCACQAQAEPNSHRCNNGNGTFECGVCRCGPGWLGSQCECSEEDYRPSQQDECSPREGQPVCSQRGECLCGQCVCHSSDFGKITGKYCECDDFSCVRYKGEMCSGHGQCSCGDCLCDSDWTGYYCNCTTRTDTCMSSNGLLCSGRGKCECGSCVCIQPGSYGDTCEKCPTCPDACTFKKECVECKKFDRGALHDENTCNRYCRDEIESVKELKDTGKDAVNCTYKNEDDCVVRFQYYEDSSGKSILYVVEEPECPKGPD

B1: CCN1-WT (recombinant matricellular protein CCN1) (natural protein)
chain: TCPAACHCPLEAPKCAPGVGLVRDGCGCCKVCAKQLNEDCSKTQPCDHTKGLECNFGASSTALKGICRAQSEGRPCEYNSRIYQNGESFQPNCKHQCTCIDGAVGCIPLCPQELSLPNLGCPNPRLVKVSGQCCEEWVCDEDSIKDSLDDQDDLLGLDASEVELTRNNELIAIGKGSSLKRLPVFGTEPRVLFNPLHAHGQKCIVQTTSWSQCSKSCGTGISTRVTNDNPECRLVKETRICEVRPCGQPVYSSLKKGKKCSKTKKSPEPVRFTYAGCSSVKKYRPKYCGSCVDGRCCTPLQTRTVKMRFRCEDGEMFSKNVMMIQSCKCNYNCPHPNEASFRLYSLFNDIHKFRD
For B1, the phagocytosis of S. aureus bioparticles by BMDMs pretreated with CCN1 (2 µg per ml); obliterated by cilengitide (1 µM); also enhanced in BM-PMNs and THP.1 macrophages [1] was 5 fold and the Kd [2] was 202 nM.
